# Test results as given in US20260146097A1.
# T1: human IL2Rbeta-Avi protein (R&D Systems) (human) (UniProt P14784)
# T1 sequence (looked up): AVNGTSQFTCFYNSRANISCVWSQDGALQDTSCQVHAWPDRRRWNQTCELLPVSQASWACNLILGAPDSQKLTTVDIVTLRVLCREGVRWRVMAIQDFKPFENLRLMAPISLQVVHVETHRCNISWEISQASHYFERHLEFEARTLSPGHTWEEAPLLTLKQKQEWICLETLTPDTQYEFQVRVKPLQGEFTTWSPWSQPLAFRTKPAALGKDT
# Target: IL2Rs (IL2Rgamma/IL2Rbeta) on preactivated human PBMCs / CD8+ T cells (human) (UniProt P14784)
# Test: cell-based or functional assay
row,pSTAT5 EMAX (Mean Fluorescence Intensity) (Mean Fluorescence Intensity),Molecule
1,25000,IgG Control (antibody)

# Target: T1, human IL2Rbeta-Avi protein (R&D Systems) (human)
# Test: ELISA: variant captured by anti-human IgG-Fc, human IL2Rbeta-Avi, streptavidin-HRP
row,EC50 [µg/mL],Molecule
1,0.65,"Wild-type anti-IL2Rbeta VH in the multi-specific format (anti-LAG3 and a single anti-IL2Rgamma/anti-IL2Rbeta unit) (protein, part only; not given: rest of multi-specific format, part only) VH: EVQLVQSGAEVKKPGACVKISCKVSGYTFTDYYMHWVQRAPGKGLEWIGLVDPEDGETIYAEKFQGRVTITADTSTDTAYMELCSLRSEDTAVYYCATDFVKLDFSLSFQHWGQGTLVTVSS"
2,0.24,"Anti-IL2Rbeta VH modification Y33F in the multi-specific format (protein, part only; not given: Rest of multi-specific format, not shown: another chain or arm of the molecule; a dimerising Fc or GST; large carriers; small tags and cut ends) VH: EVQLVQSGAEVKKPGACVKISCKVSGYTFTDYFMHWVQRAPGKGLEWIGLVDPEDGETIYAEKFQGRVTITADTSTDTAYMELCSLRSEDTAVYYCATDFVKLDFSLSFQHWGQGTLVTVSS"
3,0.3,"Anti-IL2Rbeta VH modification E53S in the multi-specific format (protein, part only; not given: Rest of multi-specific format, not shown: another chain or arm of the molecule; a dimerising Fc or GST; large carriers; small tags and cut ends) VH: EVQLVQSGAEVKKPGACVKISCKVSGYTFTDYYMHWVQRAPGKGLEWIGLVDPSDGETIYAEKFQGRVTITADTSTDTAYMELCSLRSEDTAVYYCATDFVKLDFSLSFQHWGQGTLVTVSS"
4,0.3,"Anti-IL2Rbeta VH modification E53I in the multi-specific format (protein, part only; not given: Rest of multi-specific format, not shown: another chain or arm of the molecule; a dimerising Fc or GST; large carriers; small tags and cut ends) VH: EVQLVQSGAEVKKPGACVKISCKVSGYTFTDYYMHWVQRAPGKGLEWIGLVDPIDGETIYAEKFQGRVTITADTSTDTAYMELCSLRSEDTAVYYCATDFVKLDFSLSFQHWGQGTLVTVSS"
5,0.21,"Anti-IL2Rbeta VH modification D31S in the multi-specific format (protein, part only; not given: Rest of multi-specific format, not shown: another chain or arm of the molecule; a dimerising Fc or GST; small tags and cut ends) VH: EVQLVQSGAEVKKPGACVKISCKVSGYTFTSYYMHWVQRAPGKGLEWIGLVDPEDGETIYAEKFQGRVTITADTSTDTAYMELCSLRSEDTAVYYCATDFVKLDFSLSFQHWGQGTLVTVSS"
6,0.24,"Anti-IL2Rbeta VH modification Y32F in the multi-specific format (protein, part only; not given: Rest of multi-specific format, not shown: another chain or arm of the molecule; a dimerising Fc or GST; large carriers; small tags and cut ends) VH: EVQLVQSGAEVKKPGACVKISCKVSGYTFTDFYMHWVQRAPGKGLEWIGLVDPEDGETIYAEKFQGRVTITADTSTDTAYMELCSLRSEDTAVYYCATDFVKLDFSLSFQHWGQGTLVTVSS"
7,0.24,"Anti-IL2Rbeta VH modification D31Y in the multi-specific format (protein, part only; not given: Rest of multi-specific format, not shown: another chain or arm of the molecule; a dimerising Fc or GST; small tags and cut ends) VH: EVQLVQSGAEVKKPGACVKISCKVSGYTFTYYYMHWVQRAPGKGLEWIGLVDPEDGETIYAEKFQGRVTITADTSTDTAYMELCSLRSEDTAVYYCATDFVKLDFSLSFQHWGQGTLVTVSS"
8,0.4,"Anti-IL2Rbeta VH modification D31K in the multi-specific format (protein, part only; not given: Rest of multi-specific format, not shown: another chain or arm of the molecule; a dimerising Fc or GST; small tags and cut ends) VH: EVQLVQSGAEVKKPGACVKISCKVSGYTFTKYYMHWVQRAPGKGLEWIGLVDPEDGETIYAEKFQGRVTITADTSTDTAYMELCSLRSEDTAVYYCATDFVKLDFSLSFQHWGQGTLVTVSS"
9,0.13,"Anti-IL2Rbeta VH modification D31R in the multi-specific format (protein, part only; not given: Rest of multi-specific format, not shown: another chain or arm of the molecule; a dimerising Fc or GST; small tags and cut ends) VH: EVQLVQSGAEVKKPGACVKISCKVSGYTFTRYYMHWVQRAPGKGLEWIGLVDPEDGETIYAEKFQGRVTITADTSTDTAYMELCSLRSEDTAVYYCATDFVKLDFSLSFQHWGQGTLVTVSS"
